Target: T细胞表面未知蛋白 (unknown protein on the surface of CD3+ T cells)
Test: cell-based or functional assay

- T细胞增殖抑制, 剂量依赖 (dose at which inhibition of T cell proliferation becomes evident): > 0.5 µg
Substance: IGSF9-ECD-His (带有His标签的人IGSF9胞外区蛋白) (receptor)
